Reference: PMC2976503 (The Journal of neuroscience : the official journal of the …, 2010)

Molecular target: the molecule itself
Test: SDS-resistant high molecular mass complex on SDS-PAGE

B1: GABAA receptor γ2S(Q351X)^FLAG subunit (domain or fragment, human, UniProt P18507-1 40-389, looked up)
chain: QKSDDDYEDYASNKTWVLTPKVPEGDVTVILNNLLEGYDNKLRPDIGVKPTLIHTDMYVNSIGPVNAINMEYTIDIFFAQTWYDRRLKFNSTIKVLRLNSNMVGKIWIPDTFFRNSKKADAHWITTPNRMLRIWNDGRVLYTLRLTIDAECQLQLHNFPMDEHSCPLEFSSYGYPREEIVYQWKRSSVEVGDTRSWRLYQFSFVGLRNTTEVVKTTSGDYVVMSVYFDLSRRMGYFTIQTYIPCTLIVVLSWVSFWINKDAVPARTSLGITTVLTMTTLSTIARKSLPKVSYVTAMDLFVSVCFIFVFSALVEYGTLHYFVSNRKPSKDKDKKKKNPAPTIDIRPRSATI
- stoichiometry N: 2
